Reference: US5856138A, “Human parathyroid hormone muteins and production thereof” (Takeda Chemical Industries, Ltd., priority 1991, dated 1999)

T1: human PTH receptor (Mus musculus, UniProt P41593)
T1 construct: mouse cranial bone-derived osteoblast-like cell strain MC3T3-EI cultivated on a 96-well multiplate; endogenous in cells; host or cells: MC3T3-E1 (mouse cranial bone-derived osteoblast-like cells)
T1 sequence (P41593 27-591): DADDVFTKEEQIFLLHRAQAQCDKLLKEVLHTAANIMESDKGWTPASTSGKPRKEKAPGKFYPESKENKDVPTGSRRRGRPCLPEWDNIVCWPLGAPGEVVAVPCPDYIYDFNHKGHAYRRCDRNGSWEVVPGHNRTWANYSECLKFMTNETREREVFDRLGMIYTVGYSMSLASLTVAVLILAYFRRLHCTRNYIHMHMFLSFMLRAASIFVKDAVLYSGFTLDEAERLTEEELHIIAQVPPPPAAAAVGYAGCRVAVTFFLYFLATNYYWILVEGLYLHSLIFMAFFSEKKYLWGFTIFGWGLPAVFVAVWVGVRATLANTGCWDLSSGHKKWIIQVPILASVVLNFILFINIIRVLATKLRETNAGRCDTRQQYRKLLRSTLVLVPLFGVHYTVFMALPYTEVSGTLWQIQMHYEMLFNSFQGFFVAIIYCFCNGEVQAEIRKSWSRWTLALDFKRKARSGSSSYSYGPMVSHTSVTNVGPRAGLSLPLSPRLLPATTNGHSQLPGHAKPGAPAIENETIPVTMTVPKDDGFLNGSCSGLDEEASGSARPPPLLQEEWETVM


Biological target: T1, human PTH receptor
Assay: cAMP production in osteoblast-like MC3T3-EI cells (modified method of Shigeno et al.)
Assay type: cell-based
Settings: specific activity of the muteins on the natural type human PTH (=1.0), 0.01-100 nM analogue, room temperature, 30 minutes
Method: The biological activity of human PTH muteins obtained in Examples 2 to 6 and natural type human PTH were evaluated by a modification of the method reported by Shigeno et al. [The Journal of Biological Chemistry 263. 18369-18377 (1988)]. A culture solution (Hank's solution containing 20 mM N-2-hydroxyethylpiperazine-N'-2-ethanesulfonic acid (HEPES), 0.1% bovine serum albumin (BSA) and 0.5 mM isobutylmethylxanthine) containing 0.01, 0.1, 1, 10 or 100 nM analogue was added in an amount of 100 μl to mouse cranial bone-derived osteoblast-like cell strain MC3T3-EI cultivated on a 96-well multiplate (Nunclon, Nunc), followed by reaction at room temperature for 30 minutes. After addition of 100 μl of 0.2N hydrochloric acid, the mixture was immersed in boiling water for 2.5 minutes, and cyclic adenosine monophosphate (cAMP) produced by a human PTH receptor was extracted from the cells. The total cAMP in the culture solution and the cells was assayed using a commercial radioimmunoassay kit (cyclic AMP [^125 I] kit "Du Pont-Daiichil", Daiichi Kagaku Yakuhin). An increase in cAMP production depending on the concentration of the human PTH mutein added was always observed. The specific activity of the muteins on the natural type human PTH is as follows: […]

| Molecule | Specific Activity |
| --- | --- |
| Human PTH: natural type parathyroid hormone, polypeptide hormone consisting of 84 amino acids [reference compound] | 1.0 |
| [Leu^8 ] human PTH (protein) SVSEIQLLHNLGKHLNSMERVEWLRKKLQDVHNFVALGAPLAPRDAGSQRPRKKEDNVLVESHEKSLGEADKADVNVLTKAKSQ | 1.0 |
| [Leu^18 ] human PTH: human PTH (1-84) mutein in which methionine at the 18-position was substituted by leucine (protein) SVSEIQLMHNLGKHLNSLERVEWLRKKLQDVHNFVALGAPLAPRDAGSQRPRKKEDNVLVESHEKSLGEADKADVNVLTKAKSQ | 0.2 |
| [Leu^8,18 ] human PTH: human PTH (1-84) mutein in which methionine residues at the 8- and 18-positions were substituted by leucine (protein) SVSEIQLLHNLGKHLNSLERVEWLRKKLQDVHNFVALGAPLAPRDAGSQRPRKKEDNVLVESHEKSLGEADKADVNVLTKAKSQ | 0.3 |
| [Cys^35 ] human PTH: human PTH (1-84) mutein in which valine at the 35-position was substituted by cysteine (protein) SVSEIQLMHNLGKHLNSMERVEWLRKKLQDVHNFCALGAPLAPRDAGSQRPRKKEDNVLVESHEKSLGEADKADVNVLTKAKSQ | 0.6 |

Biological target: human PTH receptor
Assay: not given
Settings: not given

| cAMP production in MC3T3-EI cells; specific activity on the natural type human PTH (relative to natural type human PTH) | Molecule |
| --- | --- |
| 0.6 | [Cys35] human PTH (1-84) (ligand) |
| 0.3 | [Leu8,18] human PTH (1-84) (ligand) |
| 1 | [Leu8] human PTH (1-84) (ligand) |
| 0.2 | [Leu18] human PTH (1-84) (ligand) |
| 1 | natural type human PTH (1-84) (ligand) |
